The record followed here is patent US20160244525A1.

Assay [1] addresses FGFR2-IIIb (human) (UniProt P21802). The assay is described as follows: SPR, IgG. Background: In SPR one partner is held on a chip, and binding of the other changes the refractive index at the surface.
For assay [2] the target is unchanged. The assay is described as follows: SPR (Biacore T100), IgG captured by anti-human Fc, FGFR flowed.
The target in assay [3] is FGFR3-IIIb (human). Described as above.
Assay [4] addresses FGFR2-IIIb (human) (UniProt P21802). Put plainly: blocking ELISA: FGFR2-IIIb-Fc captured on an anti-human Fc plate, antibody titrated, FGF-7 (with heparin) is the blocked ligand, bound FGF-7 read as OD450. Background: In an ELISA, binding on a coated surface is turned into a signal by an enzyme label.
For assay [5], the target named is FGFR3-IIIb (human). Put plainly: blocking ELISA: FGFR3-IIIb-Fc captured on an anti-human Fc plate, antibody titrated, FGF-1 (with heparin) is the blocked ligand, bound FGF-1 read as OD450.
Assay [6] deals with FGFR2-IIIb (human) (UniProt P21802). Put plainly: SPR.
Chain of FGFR2-IIIb (human) (P21802 other isoform, or with tags, fused parts or gaps limits assumed): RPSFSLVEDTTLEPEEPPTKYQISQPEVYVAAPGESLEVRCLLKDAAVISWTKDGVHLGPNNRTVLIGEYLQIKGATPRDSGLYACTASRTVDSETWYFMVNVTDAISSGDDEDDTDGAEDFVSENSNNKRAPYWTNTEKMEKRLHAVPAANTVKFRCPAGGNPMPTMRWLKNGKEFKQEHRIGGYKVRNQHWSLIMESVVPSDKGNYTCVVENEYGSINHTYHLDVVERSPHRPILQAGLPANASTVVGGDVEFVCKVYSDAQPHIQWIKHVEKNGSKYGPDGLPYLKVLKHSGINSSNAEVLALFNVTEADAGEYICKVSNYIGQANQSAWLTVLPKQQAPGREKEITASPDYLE
Assay [7] deals with FGFR3-IIIb (human). Put plainly: SPR.

Chain of FGFR3-IIIb (human) (chain, as listed by the source limits assumed): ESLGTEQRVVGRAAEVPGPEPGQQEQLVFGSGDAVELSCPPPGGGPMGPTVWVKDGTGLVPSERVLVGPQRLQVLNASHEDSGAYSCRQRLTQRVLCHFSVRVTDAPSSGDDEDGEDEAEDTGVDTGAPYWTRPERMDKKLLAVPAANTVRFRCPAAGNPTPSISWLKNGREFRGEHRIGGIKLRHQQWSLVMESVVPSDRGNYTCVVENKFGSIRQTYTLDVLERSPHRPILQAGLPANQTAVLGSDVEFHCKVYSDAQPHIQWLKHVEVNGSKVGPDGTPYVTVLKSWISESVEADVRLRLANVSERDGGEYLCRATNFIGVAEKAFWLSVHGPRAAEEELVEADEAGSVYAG

B1: 2B.1.3.10 (antibody, human IgG1, kappa, V domains shown)
VH: EVQLVESGGGLVQPGGSLRLSCAASGFPFTSQGISWVRQAPGKGLEWVGRTHLGDGSTNYADSVKGRFTISADTSKNTAYLQMNSLRAEDTAVYYCARTYGIYDTYDKYTEYVMDYWGQGTLVTVSS
VL: DIQMTQSPSSLSASVGDRVTITCRASQDVDTSLAWYKQKPGKAPKLLIYSASFLYSGVPSRFSGSGSGTDFTLTISSLQPEDFATYYCQQSTGHPQTFGQGTKVEIKR
In the case of B1, the Kd in the assay with FGFR2-IIIb (human) [1] is 2.9 nM; in the assay with FGFR2-IIIb (human) [2], 2.9 nM; with FGFR3-IIIb (human) [3], 0.11 nM. In addition, the IC50 (read off the curve) with FGFR2-IIIb (human) [4] is 2 nM; with FGFR3-IIIb (human) [5] it was 1 to 2 nM.

B2: 2B.1.1 (antibody, human IgG1, kappa, V domains shown)
VH: EVQLVESGGGLVQPGGSLRLSCAASGFTFTSTGISWVRQAPGKGLEWVGRYWAWDGSTNYADSVKGRFTISADTSKNTAYLQMNSLRAEDTAVYYCARTYGIYDLYVDYTEYVMDYWGQGTLVTVSS
VL: DIQMTQSPSSLSASVGDRVTITCRASQDVDTSLAWYKQKPGKAPKLLIYSASFLYSGVPSRFSGSGSGTDFTLTISSLQPEDFATYYCQQSTGHPQTFGQGTKVEIKR
As for B2, the equilibrium dissociation constant (Kd) in the assay with FGFR2-IIIb (human) [6] came out at 0.29 nM; in the assay with FGFR2-IIIb (human) [2], 0.29 nM; in the assay with FGFR3-IIIb (human) [3] it was 0.09 nM.

B3: 2B.1.20 (antibody, human IgG1, kappa, V domains shown)
VH: EVQLVESGGGLVQPGGSLRLSCAASGFTFTSTGISWVRQAPGKGLEWVGRLDVFWGSTNYADSVKGRFTISADTSKNTAYLQMNSLRAEDTAVYYCARTYGIYDLYVDYTEYVMDYWGQGTLVTVSS
VL: DIQMTQSPSSLSASVGDRVTITCRASQDVDTSLAWYKQKPGKAPKLLIYSASFLYSGVPSRFSGSGSGTDFTLTISSLQPEDFATYYCQQSTGHPQTFGQGTKVEIKR
As for B3, the Kd with FGFR2-IIIb (human) [2] came to 1.2 nM.

B4: 2B.1.86 (antibody, human IgG1, kappa, V domains shown)
VH: EVQLVESGGGLVQPGGSLRLSCAASGFTFTSTGISWVRQAPGKGLEWVGRLSFWTGSTNYADSVKGRFTISADTSKNTAYLQMNSLRAEDTAVYYCARTYGIYDLYVDYTEYVMDYWGQGTLVTVSS
VL: DIQMTQSPSSLSASVGDRVTITCRASQDVDTSLAWYKQKPGKAPKLLIYSASFLYSGVPSRFSGSGSGTDFTLTISSLQPEDFATYYCQQSTGHPQTFGQGTKVEIKR
With B4, in the assay with FGFR2-IIIb (human) [2], the Kd came out at 1.3 nM.

B5: 2B.1.32 (antibody, human IgG1, kappa, V domains shown)
VH: EVQLVESGGGLVQPGGSLRLSCAASGFTFTSTGISWVRQAPGKGLEWVGRWVGFTGSTNYADSVKGRFTISADTSKNTAYLQMNSLRAEDTAVYYCARTYGIYDLYVDYTEYVMDYWGQGTLVTVSS
VL: DIQMTQSPSSLSASVGDRVTITCRASQDVDTSLAWYKQKPGKAPKLLIYSASFLYSGVPSRFSGSGSGTDFTLTISSLQPEDFATYYCQQSTGHPQTFGQGTKVEIKR
Regarding B5, the Kd with FGFR2-IIIb (human) [2] is 1.2 nM; in the assay with FGFR3-IIIb (human) [3], 0.06 nM.

B6: 2B.1.9 (antibody, human IgG1, kappa, V domains shown)
VH: EVQLVESGGGLVQPGGSLRLSCAASGFTFTSTGISWVRQAPGKGLEWVGRYHPYLGSTNYADSVKGRFTISADTSKNTAYLQMNSLRAEDTAVYYCARTYGIYDLYVDYTEYVMDYWGQGTLVTVSS
VL: DIQMTQSPSSLSASVGDRVTITCRASQDVDTSLAWYKQKPGKAPKLLIYSASFLYSGVPSRFSGSGSGTDFTLTISSLQPEDFATYYCQQSTGHPQTFGQGTKVEIKR
In the case of B6, in the assay with FGFR2-IIIb (human) [2], the dissociation constant (Kd) was 1.4 nM.

B7: 2B.1.3.2 (antibody, human IgG1, kappa, V domains shown)
VH: EVQLVESGGGLVQPGGSLRLSCAASGFTFTSTGISWVRQAPGKGLEWVGRTHLGDGSTNYADSVKGRFTISADTSKNTAYLQMNSLRAEDTAVYYCARTYGIYDTYDNYTEYVMDYWGQGTLVTVSS
VL: DIQMTQSPSSLSASVGDRVTITCRASQDVDTSLAWYKQKPGKAPKLLIYSASFLYSGVPSRFSGSGSGTDFTLTISSLQPEDFATYYCQQSTGHPQTFGQGTKVEIKR
The molecule B7 registered a Kd in the assay with FGFR2-IIIb (human) [1] of 6.6 nM.

B8: 2B.1.95 (antibody, human IgG1, kappa, V domains shown)
VH: EVQLVESGGGLVQPGGSLRLSCAASGFTFTSTGISWVRQAPGKGLEWVGRLIFFTGSTNYADSVKGRFTISADTSKNTAYLQMNSLRAEDTAVYYCARTYGIYDLYVDYTEYVMDYWGQGTLVTVSS
VL: DIQMTQSPSSLSASVGDRVTITCRASQDVDTSLAWYKQKPGKAPKLLIYSASFLYSGVPSRFSGSGSGTDFTLTISSLQPEDFATYYCQQSTGHPQTFGQGTKVEIKR
Regarding B8, the Kd in the assay with FGFR2-IIIb (human) [2] worked out at 1.8 nM; in the assay with FGFR3-IIIb (human) [3], 0.19 nM.

B9: 2B.1.49 (antibody, human IgG1, kappa, V domains shown)
VH: EVQLVESGGGLVQPGGSLRLSCAASGFTFTSTGISWVRQAPGKGLEWVGRLSFFSGSTNYADSVKGRFTISADTSKNTAYLQMNSLRAEDTAVYYCARTYGIYDLYVDYTEYVMDYWGQGTLVTVSS
VL: DIQMTQSPSSLSASVGDRVTITCRASQDVDTSLAWYKQKPGKAPKLLIYSASFLYSGVPSRFSGSGSGTDFTLTISSLQPEDFATYYCQQSTGHPQTFGQGTKVEIKR
As to B9, the dissociation constant Kd with FGFR2-IIIb (human) [2] came out at 1.3 nM.

B10: 2B.1.3.4 (antibody, human IgG1, kappa, V domains shown)
VH: EVQLVESGGGLVQPGGSLRLSCAASGFTFTSTGISWVRQAPGKGLEWVGRTHLGDGSTNYADSVKGRFTISADTSKNTAYLQMNSLRAEDTAVYYCARTYGIYDIYGGYTEYVMDYWGQGTLVTVSS
VL: DIQMTQSPSSLSASVGDRVTITCRASQDVDTSLAWYKQKPGKAPKLLIYSASFLYSGVPSRFSGSGSGTDFTLTISSLQPEDFATYYCQQSTGHPQTFGQGTKVEIKR
In the assay with FGFR2-IIIb (human) [1], B10 returned a dissociation constant Kd of 5.8 nM.

B11: 2B.1.3.6 (antibody, human IgG1, kappa, V domains shown)
VH: EVQLVESGGGLVQPGGSLRLSCAASGFTFTSTGISWVRQAPGKGLEWVGRTHLGDGSTNYADSVKGRFTISADTSKNTAYLQMNSLRAEDTAVYYCARTYGIYDTYDEYTEYVMDYWGQGTLVTVSS
VL: DIQMTQSPSSLSASVGDRVTITCRASQDVDTSLAWYKQKPGKAPKLLIYSASFLYSGVPSRFSGSGSGTDFTLTISSLQPEDFATYYCQQSTGHPQTFGQGTKVEIKR
In the case of B11, the dissociation constant Kd with FGFR2-IIIb (human) [1] was 5.9 nM.

B12: 2B.1.88 (antibody, human IgG1, kappa, V domains shown)
VH: EVQLVESGGGLVQPGGSLRLSCAASGFTFTSTGISWVRQAPGKGLEWVGRIWMFTGSTNYADSVKGRFTISADTSKNTAYLQMNSLRAEDTAVYYCARTYGIYDLYVDYTEYVMDYWGQGTLVTVSS
VL: DIQMTQSPSSLSASVGDRVTITCRASQDVDTSLAWYKQKPGKAPKLLIYSASFLYSGVPSRFSGSGSGTDFTLTISSLQPEDFATYYCQQSTGHPQTFGQGTKVEIKR
For the molecule B12, the dissociation constant Kd with FGFR2-IIIb (human) [2] came out at 0.64 nM; with FGFR3-IIIb (human) [3] it was 0.05 nM.

B13: 2B.1.3.8 (antibody, human IgG1, kappa, V domains shown)
VH: EVQLVESGGGLVQPGGSLRLSCAASGFPFTSLGISWVRQAPGKGLEWVGRTHLGDGSTNYADSVKGRFTISADTSKNTAYLQMNSLRAEDTAVYYCARTYGIYDIYEKYTEYVMDYWGQGTLVTVSS
VL: DIQMTQSPSSLSASVGDRVTITCRASQDVDTSLAWYKQKPGKAPKLLIYSASFLYSGVPSRFSGSGSGTDFTLTISSLQPEDFATYYCQQSTGHPQTFGQGTKVEIKR
For the molecule B13, in the assay with FGFR2-IIIb (human) [1], the Kd stood at 1.4 nM.

B14: 2B.1.73 (antibody, human IgG1, kappa, V domains shown)
VH: EVQLVESGGGLVQPGGSLRLSCAASGFTFTSTGISWVRQAPGKGLEWVGRMIFYNGSTNYADSVKGRFTISADTSKNTAYLQMNSLRAEDTAVYYCARTYGIYDLYVDYTEYVMDYWGQGTLVTVSS
VL: DIQMTQSPSSLSASVGDRVTITCRASQDVDTSLAWYKQKPGKAPKLLIYSASFLYSGVPSRFSGSGSGTDFTLTISSLQPEDFATYYCQQSTGHPQTFGQGTKVEIKR
Consider B14, for which the results for the Kd with FGFR2-IIIb (human) [2] and with FGFR3-IIIb (human) [3] were 1.4 nM and 0.09 nM, respectively.

B15: 2B.1.3.12 (antibody, human IgG1, kappa, V domains shown)
VH: EVQLVESGGGLVQPGGSLRLSCAASGFPFTSTGISWVRQAPGKGLEWVGRTHLGDGSTNYADSVKGRFTISADTSKNTAYLQMNSLRAEDTAVYYCARTYGIYDTYDMYTEYVMDYWGQGTLVTVSS
VL: DIQMTQSPSSLSASVGDRVTITCRASQDVDTSLAWYKQKPGKAPKLLIYSASFLYSGVPSRFSGSGSGTDFTLTISSLQPEDFATYYCQQSTGHPQTFGQGTKVEIKR
Turning to B15, the Kd was determined as 3 nM with FGFR2-IIIb (human) [6]; 0.5 nM with FGFR3-IIIb (human) [7]; 3 nM with FGFR2-IIIb (human) [1]; 3 nM in the assay with FGFR2-IIIb (human) [2]; 0.5 nM with FGFR3-IIIb (human) [3]. In addition, the IC50 (read off the curve) is 2 nM with FGFR2-IIIb (human) [4] and 1 to 2 nM with FGFR3-IIIb (human) [5].

As a reminder, the Kd is a measure of binding affinity in units of concentration. The low end stands for tighter binding, the high end for weaker binding.
